Source: PMC6499816 (Nature Communications, 2019)
Ends that are not written are not given here.

Columns and labels:
Conditions in all cases: both partners purified
[1] = molecular target: T1, GABARAP (recombinant, BLI) (human, UniProt O95166 1-117); experiment: BLI; biotinylated LIR peptide (50 μg/ml) immobilised on streptavidin biosensor, ATG8 in solution; Octet Red 96; 25 mM Tris pH 7.5, 150 mM NaCl, 0.5 mM TCEP, 0.1% Tween-20, 1 mg/ml BSA; 25 °C; Kd from response against concentration
T1 construct: full-length human GABARAP; also called WT GABARAP; source: recombinant; bacterial expression plasmid pAL

[2] = molecular target: GABARAP-L1 (recombinant, BLI) (human, UniProt Q9H0R8 1-117); experiment: as above
GABARAP-L1 (recombinant, BLI), sequence (Q9H0R8 whole entry, looked up): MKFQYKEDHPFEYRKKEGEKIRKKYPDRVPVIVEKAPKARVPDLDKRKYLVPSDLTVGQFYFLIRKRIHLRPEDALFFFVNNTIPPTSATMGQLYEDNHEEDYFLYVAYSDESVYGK

LC3B (recombinant, BLI) = LC3B (recombinant, BLI) (human, UniProt Q9GZQ8 1-120); experiment: as above
[3] = molecular target: T2, GABARAP-L2 (recombinant, BLI) (human, UniProt P60520 1-117); experiment: as above
T2 construct: human GABARAP-L2; source: recombinant; bacterial expression plasmid pAL
T2 sequence (P60520 whole entry): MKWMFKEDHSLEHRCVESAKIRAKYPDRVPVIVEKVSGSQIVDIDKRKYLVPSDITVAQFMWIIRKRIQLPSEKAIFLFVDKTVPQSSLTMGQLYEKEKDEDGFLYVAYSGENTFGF

GABARAP = molecular target: T3, GABARAP (human, UniProt O95166 1-117); experiment: BLI; biotinylated LIR peptide immobilised on streptavidin biosensors (Octet Red 96), ATG8 protein in solution; 25 mM Tris pH 7.5, 150 mM NaCl, 0.5 mM TCEP, 0.1% Tween-20, 1 mg/ml BSA, 25 °C; Kd from response against concentration, Y=Rmax*X/(Kd+X)
T3 construct: GABARAP, human, full length; The plasmid has a 3C protease site after GST; also called GABARAP WT; source: recombinant, expressed in bacteria from the pAL plasmid (modified pGEX-6P2)

LC3A = molecular target: T4, LC3A (human, UniProt Q9H492 1-121); experiment: as above
T4 construct: LC3A, human, full length; The plasmid has a 3C protease site after GST; source: recombinant, expressed in bacteria from the pAL plasmid (modified pGEX-6P2)

LC3C = molecular target: T5, LC3C (human, UniProt Q9BXW4 1-126); experiment: as above
T5 construct: LC3C, human, full length; The plasmid has a 3C protease site after GST; source: recombinant, expressed in bacteria from the pAL plasmid (modified pGEX-6P2)

For GGSSGNTHDDFVMIDFKPAFSKDD (also: biotin, position not given here) [ATG13 LIR peptide (biotinylated, BLI)], the Kd [1] was 0.59 µM and the Kd [2] was 0.53 µM.

Binder PDSIDAHTFDFETIPHPNIEQTIH (also: biotin, position not given here) [FIP200 LIR peptide (biotinylated, BLI)] has a Kd [1] of 5.6 µM and a Kd [2] of 7 µM.

Work on SDNCSGGDDDWTHLSSKEVDPSTG (also: biotin, position not given here) [p62 LIR peptide (biotinylated, BLI)] yielded a Kd (LC3B (recombinant, BLI)) of 4.5 µM and a Kd [3] of 5.2 µM.

Binder DTDDFVMVPAQFPGDLV (peptide, UniProt O75385 353-369, looked up, not fully specified (N-terminus); also: biotinylated, position not given here, source: synthetic peptide) [ULK1 (aa 353-369) LIR peptide] has a Kd (GABARAP) of 0.116 µM, a Kd (LC3A) of 7.71 µM and a Kd (LC3C) of 1.9 µM.
